Results: paper PMC2665295 (Biochemistry, 2008)
Where two headings read alike, the source gives them in different places.

How the values were obtained:
Assay in all cases: ITC
[1] = target: T1, CaMC composed of amino acids 76–148 (UniProt P0DP23 77-149)
[2] = target: T2, CaMN composed of amino acids 1–80 (UniProt P0DP23 2-81)
[3] = target: T3, CaMN composed of amino acids 1–75 (UniProt P0DP23 2-76)
[4] = target: T1, CaMC composed of amino acids 76–148; remark: listed apart in the source
wild-type calmodulin = wild-type calmodulin (UniProt P0DP23 1-149)
[5] = target: T2, CaMN composed of amino acids 1–80; remark: listed apart in the source
[6] = target: T3, CaMN composed of amino acids 1–75; remark: listed apart in the source
[7] = target: T1, CaMC composed of amino acids 76–148; remark: listed apart in the source
[8] = target: T2, CaMN composed of amino acids 1–80; remark: listed apart in the source
[9] = target: T3, CaMN composed of amino acids 1–75; remark: listed apart in the source
[10] = target: T1, CaMC composed of amino acids 76–148; remark: listed apart in the source
[11] = target: T2, CaMN composed of amino acids 1–80; remark: listed apart in the source
[12] = target: T3, CaMN composed of amino acids 1–75; remark: listed apart in the source

dH1 (binding mode 1) [1]: -3.6 kcal/mol
dH2 (binding mode 2) [1]: 6.8 kcal/mol
dH1 (binding mode 1) [2]: 3.9 kcal/mol
dH2 (binding mode 2) [2]: 5.7 kcal/mol
Kd [3]: 280 nM
dH [3]: 1.9 kcal/mol
dH1 (binding mode 1) [4]: -11.8 kcal/mol
dH2 (binding mode 2) [4]: 5.4 kcal/mol
Kd (wild-type calmodulin): 0.07 pM
dH (wild-type calmodulin): -6.1 kcal/mol
dH1 (binding mode 1) [5]: -3.1 kcal/mol
dH2 (binding mode 2) [5]: -3.8 kcal/mol
Kd [6]: 360 nM
dH [6]: -2.5 kcal/mol
dH1 (binding mode 1) [7]: -15.5 kcal/mol
dH2 (binding mode 2) [7]: 1.7 kcal/mol
dH1 (binding mode 1) [8]: -6.5 kcal/mol
dH2 (binding mode 2) [8]: -8.5 kcal/mol
Kd [9]: 710 nM
dH [9]: -5.1 kcal/mol
dH1 (binding mode 1) [10]: -7.7 kcal/mol
dH2 (binding mode 2) [10]: 7.6 kcal/mol
dH1 (binding mode 1) [11]: -0.3 kcal/mol
dH2 (binding mode 2) [11]: 2.4 kcal/mol
Kd [12]: 500 nM
dH [12]: -0.2 kcal/mol
B1: CaMKII(291–312) peptide (peptide)
peptide: Ac-KKFNARRKLKGAILTTMLATRN-NH2
